Experimental data from IntAct's records for PubMed 20498073.

Target: expa_drome ex (UniProt Q07436)
UniProt Q07436, sequence (Q07436 whole entry): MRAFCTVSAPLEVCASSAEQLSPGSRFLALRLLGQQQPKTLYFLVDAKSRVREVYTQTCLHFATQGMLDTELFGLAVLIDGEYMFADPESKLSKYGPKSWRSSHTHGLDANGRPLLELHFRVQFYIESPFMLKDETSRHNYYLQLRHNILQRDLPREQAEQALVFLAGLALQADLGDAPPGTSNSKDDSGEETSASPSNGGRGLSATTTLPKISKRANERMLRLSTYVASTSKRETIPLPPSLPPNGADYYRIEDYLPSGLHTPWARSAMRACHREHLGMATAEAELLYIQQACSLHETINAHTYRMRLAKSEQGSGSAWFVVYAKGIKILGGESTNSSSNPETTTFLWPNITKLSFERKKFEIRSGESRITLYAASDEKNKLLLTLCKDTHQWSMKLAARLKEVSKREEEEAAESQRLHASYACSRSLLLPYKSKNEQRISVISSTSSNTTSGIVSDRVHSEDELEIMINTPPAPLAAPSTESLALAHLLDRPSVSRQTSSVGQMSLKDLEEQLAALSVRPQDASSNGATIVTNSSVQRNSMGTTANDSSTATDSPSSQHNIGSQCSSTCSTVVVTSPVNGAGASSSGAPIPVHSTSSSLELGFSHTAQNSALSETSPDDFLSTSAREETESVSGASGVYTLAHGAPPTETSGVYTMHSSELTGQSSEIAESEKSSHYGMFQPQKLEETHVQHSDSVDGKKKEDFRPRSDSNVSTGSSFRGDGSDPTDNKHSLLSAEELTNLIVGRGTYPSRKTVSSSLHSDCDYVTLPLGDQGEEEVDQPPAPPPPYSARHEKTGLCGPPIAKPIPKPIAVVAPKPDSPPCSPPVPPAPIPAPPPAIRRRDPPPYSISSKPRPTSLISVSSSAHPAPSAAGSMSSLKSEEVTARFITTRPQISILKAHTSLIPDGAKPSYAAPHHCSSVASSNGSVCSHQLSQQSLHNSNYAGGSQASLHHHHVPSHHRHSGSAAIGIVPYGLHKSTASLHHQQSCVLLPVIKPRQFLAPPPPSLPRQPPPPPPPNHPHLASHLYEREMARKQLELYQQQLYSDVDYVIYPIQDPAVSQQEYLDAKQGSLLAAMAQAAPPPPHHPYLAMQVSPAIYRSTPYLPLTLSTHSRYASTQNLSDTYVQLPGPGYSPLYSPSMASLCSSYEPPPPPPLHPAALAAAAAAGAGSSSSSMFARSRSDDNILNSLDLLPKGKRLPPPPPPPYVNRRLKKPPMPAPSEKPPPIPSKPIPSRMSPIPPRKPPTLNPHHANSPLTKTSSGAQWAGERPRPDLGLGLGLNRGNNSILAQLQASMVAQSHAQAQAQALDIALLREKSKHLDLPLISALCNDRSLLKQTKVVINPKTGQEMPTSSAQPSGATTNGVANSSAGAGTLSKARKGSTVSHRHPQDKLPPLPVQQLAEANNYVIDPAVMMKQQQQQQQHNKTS

- effect of a mutation on the interaction: disrupting interaction
Substance: Protein crumbs (Drosophila melanogaster (Fruit fly)), P10040 Y2119A;P2121A;E2125A
